# In patent publication US8986682B2, “Method to increase the absorption of unsaturated fatty acids by human infants” (Swedish Orphan Biovitrum AB (publ), priority 2010, dated 2015):
# Several values for one entry are separate records, joined by “and”; a condition that tells them apart may be missing. Identical values can stand only once. Marks after values point to notes of the source that are not given here.
# B1: rhBSSL: recombinant human bile-salt-stimulated lipase, SEQ ID. NO. 1, expressed from recombinant CHO cells; used in both clinical trials (protein, listed as Homo sapiens)
# chain: AKLGAVYTEGGFVEGVNKKLGLLGDSVDIFKGIPFAAPTKALENPQPHPGWQGTLKAKNFKKRCLQATITQDSTYGDEDCLYLNIWVPQGRKQVSRDLPVMIWIYGGAFLMGSGHGANFLNNYLYDGEEIATRGNVIVVTFNYRVGPLGFLSTGDANLPGNYGLRDQHMAIAWVKRNIAAFGGDPNNITLFGESAGGASVSLQTLSPYNKGLIRRAISQSGVALSPWVIQKNPLFWAKKVAEKVGCPVGDAARMAQCLKVTDPRALTLAYKVPLAGLEYPMLHYVGFVPVIDGDFIPADPINLYANAADIDYIAGTNNMDGHIFASIDMPAINKGNKKVTEEDFYKLVSEFTITKGLRGAKTTFDVYTESWAQDPSQENKKKTVVDFETDVLFLVPTEIALAQHRANAKSAKTYAYLFSHPSRMPVYPKWVGADHADDIQYVFGKPFATPTGYRPQDRTVSKAMIAYWTNFAKTGDPNMGDSAVPTHWEPYTTENSGYLEITKKMGSSSMKRSLRTNFLRYWTLTYLALPTVTDQEATPVPPTGDSEATPVPPTGDSETAPVPPTGDSGAPPVPPTGDSGAPPVPPTGDSGAPPVPPTGDSGAPPVPPTGDSGAPPVPPTGDSGAPPVPPTGDSGAPPVPPTGDAGPPPVPPTGDSGAPPVPPTGDSGAPPVTPTGDSETAPVPPTGDSGAPPVPPTGDSEAAPVPPTDDSKEAQMPAVIRF
# Test system: preterm infants born before week 32 of gestational age
# Assay: Coefficient of fat absorption (CFA), fat balance of food and stool by gas chromatography, studies BVT.BSSL-020/-021
# Type: in vivo, human
# Parameters: Coefficient of Absorption of AA (C20:4 n-6), Minimum: concentration or dose not given beside the values
# Conditions: for CFA (overall), LS Mean Difference (rhBSSL − Placebo) / CFA (overall), Maximum / CFA (overall), Mean (SD) / CFA (overall), Median / CFA (overall), Minimum: last 72 h of 7-day treatment
# Procedure: Patients were randomized to infant formula/pasteurized breast milk supplemented with rhBSSL at a final concentration of 0.15 g/L, or to infant formula/pasteurized breast milk “supplemented” with sterile water for injection (as placebo) for the first 7 days. After a washout period of 2 days, the patient was “crossed over” to the other treatment regimen during a second 7-day treatment period. Collection of feces samples for CFA assessment were performed during the last 3 days (72 hours) of each treatment period.
# The collection of feces for the determination of CFA was performed over a period corresponding to the fat, i.e., formula or milk, ingestion during 72 hours toward the end of each treatment period. Diapers supplied to each site were used for feces collection. During the two treatment periods, a carmine red tracer dye was given as a marker together with a meal (approximately at noon) on Day 4 and Day 13, respectively, and collection of stool commenced with the appearance of the first carmine red marker in the stool. The stool containing the first marker was collected and the date and time of the first stool collected was recorded on the CRF. At 72 hours following administration of the first red marker, the second carmine marker was given, and stool collection continued until the second carmine marker appeared. The stool containing the second marker was not collected, but the date and time of the appearance of the second marker was recorded on the CRF. Diapers were weighed before placement and after removal and the difference in weight was recorded on the CRF. The times of each collection and the elapsed duration of the entire collection period was also recorded on the CRF. The use of ointments for the treatment of skin irritation was prohibited during the stool collection period. Diapers were to be changed frequently during the collection period to keep the skin dry. Patients with skin rash severity leading to discontinuation of the stool collection were to be withdrawn from the study. Specific collection methods were provided in a separate laboratory manual. If applicable, vomit from the stool collection periods of both treatment periods was weighed. A small cloth/linen was weighed and placed under the head of each infant. When the cloth/linen was soiled with vomit, it was removed and re-weighed. If an additional cloth was used to remove vomit from the infant, that cloth was also weighed before and after use. The weight of vomit (total weight minus the weight of the cloth/linen) was recorded on the CRF. All other feed losses, e.g., formula or milk left in bottle, were measured and the amount accounted for in the calculation of the volume of formula consumed at each feeding.
# Feces samples, the formula (study 020) and the milk aliquots (study 021) were analyzed by a central laboratory. Individual fatty acids, including the long-chain polyunsaturated fatty acids DHA and AA, were quantified in feces and feed by a gas chromatographic method following extraction by the Folch method. In both studies, the Omegawax 250 column (Supelco) was used for separation of the fatty acids. However, due to co-elution of DHA with nervonic acid (C24:1), which was only present in the breast milk, samples from patients of the per-protocol analysis set from study 021 were also analyzed using a SP-2380 column (Supelco) in order to quantify DHA for those samples from study 021. […] Total lipids were calculated as the sum of the individual fatty acids. (See Section 7.5.1). The same analytical principle was used to determine lipids in each of the batches of formula and aliquots of breast milk used in the study. […]
# [1] = BVT.BSSL-021 (pasteurized breast milk), PP
# [2] = BVT.BSSL-021 (pasteurized breast milk), PP, 72-hour collection period
# [3] = BVT.BSSL-021 Pasteurized milk, PP
# [4] = combined analysis, PP, post hoc
# [5] = combined data, PP, 72-hour collection, rhBSSL (N = 46)
molecule,measurement,setting,value
B1,"CFA for C20:3 n-6 (sum of C20:3 n-6 and C20:3 n-3), Difference (rhBSSL − Placebo)",[1],8.91* %
same,CFA for C20:4 n-6 (AA),[1],72.10%
same,"CFA for C20:4 n-6 (AA), Difference (rhBSSL − Placebo)",[1],10.82* %
same,CFA for C22:6 n-3 (DHA),[1],78.49%
same,"CFA for C22:6 n-3 (DHA), Difference (rhBSSL − Placebo)",[1],4.72* %
same,CFA for C24:1,[1],36.85%
same,"CFA for C24:1, Difference (rhBSSL − Placebo)",[1],7.68%
same,"Total Amount of Fat in Stool, Maximum",[2],13.3 g
same,"Total Amount of Fat in Stool, Mean (SD)",[2],6.16 g and 6.16 (3.550) g
same,"Total Amount of Fat in Stool, Median",[2],4.99 g
same,"Total Amount of Fat in Stool, Minimum",[2],0.9 g
same,"Coefficient of absorption of the sum of all LCPUFAs, LS mean",[3],70.2%
same,"Coefficient of absorption of the sum of all LCPUFAs, LS mean difference (rhBSSL-Placebo)",[3],8.02%
same,"Coefficient of absorption of the sum of all polyunsaturated fatty acids, LS mean",[3],70.7%
same,"Coefficient of absorption of the sum of all polyunsaturated fatty acids, LS mean difference (rhBSSL-Placebo)",[3],6.92%
same,"Coefficient of absorption of the sum of all saturated fatty acids, LS mean",[3],66.1%
same,"Coefficient of absorption of the sum of all saturated fatty acids, LS mean difference (rhBSSL-Placebo)",[3],4.36%
same,"Coefficient of absorption of the sum of all unsaturated fatty acids, LS mean",[3],70.6%
same,"Coefficient of absorption of the sum of all unsaturated fatty acids, LS mean difference (rhBSSL-Placebo)",[3],5.10%
same,CFA for C12:0,[4],88.86%
same,"CFA for C12:0, Difference (rhBSSL − Placebo)",[4],2.42%
same,CFA for C14:0 (myristic acid),[4],76.15%
same,"CFA for C14:0 (myristic acid), Difference (rhBSSL − Placebo)",[4],4.81%
same,CFA for C16:0,[4],55.49%
same,"CFA for C16:0, Difference (rhBSSL − Placebo)",[4],2.61%
same,CFA for C18:0,[4],44.28%
same,"CFA for C18:0, Difference (rhBSSL − Placebo)",[4],1.51%
same,CFA for C18:1,[4],73.66%
same,"CFA for C18:1, Difference (rhBSSL − Placebo)",[4],3.65%
same,CFA for C18:2 n-6 (linoleic acid),[4],77.49%
same,"CFA for C18:2 n-6 (linoleic acid), Difference (rhBSSL − Placebo)",[4],5.79%
same,CFA for C18:3 n-3 (alpha-linolenic acid),[4],76.31%
same,"CFA for C18:3 n-3 (alpha-linolenic acid), Difference (rhBSSL − Placebo)",[4],3.66%
same,"Total Amount of Fat in Stool, Maximum",[5],15.0 g
same,"Total Amount of Fat in Stool, Mean (SD)",[5],7.50 g and 7.50 (3.635) g
same,"Total Amount of Fat in Stool, Median",[5],7.05 g
same,"Total Amount of Fat in Stool, Minimum",[5],0.9 g
same,"Total Amount of Fat in Stool, Mean (SD)","combined data, PP, second column also headed rhBSSL (N = 46), placebo according to b324",8.36 (4.018) g
same,"Coefficient of Absorption of AA (C20:4 n-6), LS Mean","combined studies 020+021, FAS",77.60%
same,"Coefficient of Absorption of AA (C20:4 n-6), LS Mean Difference (rhBSSL − Placebo)","combined studies 020+021, FAS",8.70%
same,"Coefficient of Absorption of AA (C20:4 n-6), Maximum","combined studies 020+021, FAS",100.0%
same,"Coefficient of Absorption of AA (C20:4 n-6), Mean (SD)","combined studies 020+021, FAS",77.88 (17.628) %
same,"Coefficient of Absorption of AA (C20:4 n-6), Median","combined studies 020+021, FAS",81.28%
same,"Coefficient of Absorption of AA (C20:4 n-6), Minimum","combined studies 020+021, FAS",26.6%
same,"Coefficient of Absorption of DHA (C22:6 n-3), LS Mean","combined studies 020+021, FAS",77.91%
same,"Coefficient of Absorption of DHA (C22:6 n-3), LS Mean Difference (rhBSSL − Placebo)","combined studies 020+021, FAS",6.24%
same,"Coefficient of Absorption of DHA (C22:6 n-3), Maximum","combined studies 020+021, FAS",100.0%
same,"Coefficient of Absorption of DHA (C22:6 n-3), Mean (SD)","combined studies 020+021, FAS",77.97 (16.251) %
same,"Coefficient of Absorption of DHA (C22:6 n-3), Median","combined studies 020+021, FAS",81.22%
same,"Coefficient of Absorption of DHA (C22:6 n-3), Minimum","combined studies 020+021, FAS",26.8%
same,"CFA (overall), LS Mean Difference (rhBSSL − Placebo)","combined studies 020+021, FAS",3.70%
same,"CFA (overall), Maximum","combined studies 020+021, FAS",93.2%
same,"CFA (overall), Mean (SD)","combined studies 020+021, FAS",67.80 (16.663) %
same,"CFA (overall), Median","combined studies 020+021, FAS",71.09%
same,"CFA (overall), Minimum","combined studies 020+021, FAS",11.7%
same,"Coefficient of Absorption of AA (C20:4 n-6), LS Mean","combined studies 020+021, PP",77.36%
same,"Coefficient of Absorption of AA (C20:4 n-6), LS Mean Difference (rhBSSL − Placebo)","combined studies 020+021, PP",8.63%
same,"Coefficient of Absorption of AA (C20:4 n-6), Maximum","combined studies 020+021, PP",100.0%
same,"Coefficient of Absorption of AA (C20:4 n-6), Mean (SD)","combined studies 020+021, PP",78.01 (16.881) %
same,"Coefficient of Absorption of AA (C20:4 n-6), Median","combined studies 020+021, PP",81.01%
same,"Coefficient of Absorption of AA (C20:4 n-6), Minimum","combined studies 020+021, PP",26.6%
same,"Coefficient of Absorption of DHA (C22:6 n-3), LS Mean","combined studies 020+021, PP",79.83%
same,"Coefficient of Absorption of DHA (C22:6 n-3), LS Mean Difference (rhBSSL − Placebo)","combined studies 020+021, PP",5.80%
same,"Coefficient of Absorption of DHA (C22:6 n-3), Maximum","combined studies 020+021, PP",100.0%
same,"Coefficient of Absorption of DHA (C22:6 n-3), Mean (SD)","combined studies 020+021, PP",79.76 (14.075) %
same,"Coefficient of Absorption of DHA (C22:6 n-3), Median","combined studies 020+021, PP",82.90%
same,"Coefficient of Absorption of DHA (C22:6 n-3), Minimum","combined studies 020+021, PP",42.2%
same,"CFA (overall), LS Mean Difference (rhBSSL − Placebo)","combined studies 020+021, PP",3.56%
same,"CFA (overall), Maximum","combined studies 020+021, PP",93.2%
same,"CFA (overall), Mean (SD)","combined studies 020+021, PP",69.08% and 69.08 (14.683) %
same,"CFA (overall), Median","combined studies 020+021, PP",71.83%
same,"CFA (overall), Minimum","combined studies 020+021, PP",31.2%
same,Relative increase of overall CFA compared to the LS mean for placebo,"combined studies, PP",5.4%
same,Relative increase of overall CFA compared to the LS mean for placebo,"formula-fed infants (BVT.BSSL-020), PP",3.1%
